Measurements reported in publication PMC5479800, “Thioesterase YbgC affects motility by modulating c-di-GMP levels in Shewanella oneidensis” (Scientific Reports, 2017).

Legend:
Assay in all cases: purified protein
Assay type in all cases: biochemical, Shewanella oneidensis
Details in all cases: 25 °C, 200 mM sodium phosphate, pH 7.5 in table title, pH 7.0 in methods
purified protein [1] = substrate: CCC(=O)SCCNC(=O)CCNC(=O)[C@H](O)C(C)(C)COP(=O)(O)OP(=O)(O)OC[C@H]1O[C@@H](n2cnc3c(N)ncnc32)[C@H](O)[C@@H]1OP(=O)(O)O
purified protein [2] = substrate: CCCCCCCC(=O)SCCNC(=O)CCNC(=O)[C@H](O)C(C)(C)COP(=O)(O)OP(=O)(O)OC[C@H]1O[C@@H](n2cnc3c(N)ncnc32)[C@H](O)[C@@H]1OP(=O)(O)O
purified protein [3] = substrate: CC(=O)SCCNC(=O)CCNC(=O)[C@H](O)C(C)(C)COP(=O)(O)OP(=O)(O)OC[C@H]1O[C@@H](n2cnc3c(N)ncnc32)[C@H](O)[C@@H]1OP(=O)(O)O
purified protein [4] = substrate: CCCC(=O)SCCNC(=O)CCNC(=O)[C@H](O)C(C)(C)COP(=O)(O)OP(=O)(O)OC[C@H]1O[C@@H](n2cnc3c(N)ncnc32)[C@H](O)[C@@H]1OP(=O)(O)O

B1: SoYbgC (S. oneidensis YbgC) (Shewanella oneidensis MR-1) (protein)
chain: MTFNWPISVYYEDTDAGGVVYHSNYLNFFERARTEWLKALGVSQTALLADDTAFVVKRAELDFKKAARFEQNLIVETKVIELKKASLVFHQRLVDHLGDCYCEGTVLVACVALSRMRPRAIPLNIVQEFDSAS
- Km (purified protein [1]): 4.8 ± 0.6 µM
- kcat (purified protein [1]): 3.9 ± 5 s⁻¹
- kcat/Km (purified protein [1]): 810000 M⁻¹ s⁻¹
- Km (purified protein [2]): 34 ± 4 µM
- kcat (purified protein [2]): 0.15 ± 0.01 s⁻¹
- kcat/Km (purified protein [2]): 4400 M⁻¹ s⁻¹
- Km (purified protein [3]): 3.5 ± 0.4 µM
- kcat (purified protein [3]): 8 ± 0.7 s⁻¹
- kcat/Km (purified protein [3]): 2.3e+06 M⁻¹ s⁻¹
- Km (purified protein [4]): 17 ± 2 µM
- kcat (purified protein [4]): 1.3 ± 0.1 s⁻¹
- kcat/Km (purified protein [4]): 76000 M⁻¹ s⁻¹

B2: SoYbgC (S. oneidensis YbgC) (Shewanella oneidensis MR-1; D15N) (protein)
chain: MTFNWPISVYYEDTNAGGVVYHSNYLNFFERARTEWLKALGVSQTALLADDTAFVVKRAELDFKKAARFEQNLIVETKVIELKKASLVFHQRLVDHLGDCYCEGTVLVACVALSRMRPRAIPLNIVQEFDSAS
- Km (purified protein [3]): 231 ± 37 µM
